Results reported in article PMC5138414, “Structural Basis for Redox Regulation of Cytoplasmic and Chloroplastic Triosephosphate Isomerases from Arabidopsis thaliana” (Frontiers in Plant Science, 2016).

B1: pdTPI (Arabidopsis thaliana) (protein)
chain: MAGSGKFFVGGNWKCNGTKDSIAKLISDLNSATLEADVDVVVSPPFVYIDQVKSSLTDRIDISGQNSWVGKGGAFTGEISVEQLKDLGCKWVILGHSERRHVIGEKDEFIGKKAAYALSEGLGVIACIGEKLEEREAGKTFDVCFAQLKAFADAVPSWDNIVVAYEPVWAIGTGKVASPQQAQEVHVAVRGWLKKNVSEEVASKTRIIYGGSVNGGNSAELAKEEDIDGFLVGGASLKGPEFATIVNSVTSKKVAA
notes: homodimer
B2: cTPI (Arabidopsis thaliana) (protein)
chain: MARKFFVGGNWKCNGTAEEVKKIVNTLNEAQVPSQDVVEVVVSPPYVFLPLVKSTLRSDFFVAAQNCWVKKGGAFTGEVSAEMLVNLDIPWVILGHSERRAILNESSEFVGDKVAYALAQGLKVIACVGETLEEREAGSTMDVVAAQTKAIADRVTNWSNVVIAYEPVWAIGTGKVASPAQAQEVHDELRKWLAKNVSADVAATTRIIYGGSVNGGNCKELGGQADVDGFLVGGASLKPEFIDIIKAAEVKKSA
notes: homodimer

Substrate: O=CC(O)COP(=O)(O)O
Test: purified protein
Type: biochemical, Arabidopsis thaliana
Settings: G3P to DHAP direction, 0-4.0 mM G3P (DL-G3P supplied), TEA pH 7.4, 10 mM EDTA, 0.01% BSA, 0.2 mM NADH, apparent constant

| Protein | Km [µM] | kcat [s⁻¹] | kcat/Km [M⁻¹ s⁻¹] |
| --- | --- | --- | --- |
| B1 | 400 ± 20 | 2340 ± 41.6 | 5.84e+06 |
| B2 | 480 ± 50 | 2560 ± 43.9 | 5.34e+06 |
